From US20160039947A1 (Eli Lilly, published 2016)
Where a chain is given by its changes, count along the chain named.

B1: MAControl λκ (anti-cMET/anti-Axl IgG BsAb without Fab redesigns) (bispecific antibody)
heavy 1: EVQLVESGGGLVQPGGSLRLSCAASGYTFTSYWLHWVRQAPGKGLEWVGMIDPSNSDTRFNPNFKDRFTISADTSKNTAYLQMNSLRAEDTAVYYCATYRSYVTPLDYWGQGTLVTVSSASTKGPSVFPLAPSSKSTSGGTAALGCLVKDYFPEPVTVSWNSGALTSGVHTFPAVLQSSGLYSLSSVVTVPSSSLGTQTYICNVNHKPSNTKVDKKVEPKSCDKTHTCPPCPAPELLGGPSVFLFPPKPKDTLMISRTPEVTCVVVDVSHEDPEVKFNWYVDGVEVHNAKTKPREEQYQSTYRVVSVLTVLHQDWLNGKEYKCKVSNKALPAPIEKTISKAKGQPREPQVYTLPPSRDELTKNQVSLTCLVKGFYPSDIAVEWESNGQPENNYDTTPPVLDSDGSFFLYSDLTVDKSRWQQGNVFSCSVMHEALHNHYTQKSLSLSPG
light 1: DIQMTQSPSSLSASVGDRVTITCKSSQSLLYTSSQKNYLAWYQQKPGKAPKLLIYWASTRESGVPSRFSGSGSGTDFTLTISSLQPEDFATYYCQQYYAYPWTFGQGTKVEIKGQPKAAPSVTLFPPSSEELQANKATLVCLISDFYPGAVTVAWKADSSPVKAGVETTTPSKQSNNKYAASSYLSLTPEQWKSHRSYSCQVTHEGSTVEKTVAPTEC
heavy 2: EVQLVESGGGLVQPGGSLRLSCAASGFSLSGSWIHWVRQAPGKGLEWVGWINPYRGYAYYADSVKGRFTISADTSKNTAYLQMNSLRAEDTAVYYCAREYSGWGGSSVGYAMDYWGQGTLVTVSSASTKGPSVFPLAPSSKSTSGGTAALGCLVKDYFPEPVTVSWNSGALTSGVHTFPAVLQSSGLYSLSSVVTVPSSSLGTQTYICNVNHKPSNTKVDKKVEPKSCDKTHTCPPCPAPELLGGPSVFLFPPKPKDTLMISRTPEVTCVVVDVSHEDPEVKFNWYVDGVEVHNAKTKPREEQYQSTYRVVSVLTVLHQDWLNGKEYKCKVSNKALPAPIEKTISKAKGQPREPQVYTLPPSRKELTKNQVSLTCLVKGFYPSDIAVEWESNGQPENNYKTTPPVLKSDGSFFLYSKLTVDKSRWQQGNVFSCSVMHEALHNHYTQKSLSLSPG
light 2: DIQMTQSPSSLSASVGDRVTITCRASQDVSTAVAWYQQKPGKAPKLLIYSASFLYSGVPSRFSGSGSGTDFTLTISSLQPEDFATYYCQQSYTTPPTFGQGTKVEIKRTVAAPSVFIFPPSDEQLKSGTASVVCLLNNFYPREAKVQWKVDNALQSGNSQESVTEQDSKDSTYSLSSTLTLSKADYEKHKVYACEVTHQGLSSPVTKSFNRGEC
B2: MADesign κλ (anti-cMET/anti-Axl IgG BsAb with Fab redesigns) (bispecific antibody)
heavy 1: B1 heavy 1 with Q39K, N63E, H170A, F172G
light 1: RIQMTQSPSSLSASVGDRVTITCKSSQSLLYTSSQKNYLAWYQDKPGKAPKLLIYWASTRESGVPSRFSGSGSGTDFTLTISSLQPEDFATYYCQQYYAYPWTFGQGTKVEIKRTVAAPSVFIFPPSDEQLKSGTASVVCYLNNFYPREAKVQWKVDNALQSGNSQESVTEQDSKDSTYSLWSTLTLSKADYEKHKVYACEVTHQGLSSPVTKSFNRGEC
heavy 2: B1 heavy 2 with Q39Y
light 2: DIQMTQSPSSLSASVGDRVTITCRASQDVSTAVAWYQRKPGKAPKLLIYSASFLYSGVPSRFSGSGSGTDFTLTISSLQPEDFATYYCQQSYTTPPTFGQGTKVEIKGQPKAAPSVTLFPPSSEELQANKATLVCLISDFYPGAVTVAWKADSSPVKAGVETTTPSKQSNNKYAASSYLSLTPEQWKSHRSYSCQVTHEGSTVEKTVAPTEC
notes: also called MA Designs
B3: MADesign λκ (anti-cMET/anti-Axl IgG BsAb with Fab redesigns) (bispecific antibody)
heavy 1: B1 heavy 1 with Q39K, N63E, H170A, F172G
light 1: B1 light 1 with D1R, Q44D, L142Y, S182W
heavy 2: B1 heavy 2 with Q39Y
light 2: B1 light 2 with Q38R
notes: also called MA Designs
B4: MAControl λλ (anti-cMET/anti-Axl IgG BsAb without Fab redesigns) (bispecific antibody)
heavy 1: B1 heavy 1
light 1: B1 light 1
heavy 2: B1 heavy 2
light 2: B2 light 2 with R38Q
B5: MADesign λλ (anti-cMET/anti-Axl IgG BsAb with Fab redesigns) (bispecific antibody)
heavy 1: B1 heavy 1 with Q39K, N63E, H170A, F172G
light 1: B1 light 1 with D1R, Q44D, L142Y, S182W
heavy 2: B1 heavy 2 with Q39Y
light 2: B2 light 2
notes: also called MA Designs
B6: HEControl λλ (anti-HER-2/anti-EGFR IgG BsAb without Fab redesigns) (bispecific antibody)
heavy 1: EVQLVESGGGLVQPGGSLRLSCAASGFTFTDYTMDWVRQAPGKGLEWVADVNPNSGGSIYNQRFKGRFTLSVDRSKNTLYLQMNSLRAEDTAVYYCARNLGPSFYFDYWGQGTLVTVSSASTKGPSVFPLAPSSKSTSGGTAALGCLVKDYFPEPVTVSWNSGALTSGVHTFPAVLQSSGLYSLSSVVTVPSSSLGTQTYICNVNHKPSNTKVDKKVEPKSCDKTHTCPPCPAPELLGGPSVFLFPPKPKDTLMISRTPEVTCVVVDVSHEDPEVKFNWYVDGVEVHNAKTKPREEQYQSTYRVVSVLTVLHQDWLNGKEYKCKVSNKALPAPIEKTISKAKGQPREPQVYTLPPSRDELTKNQVSLTCLVKGFYPSDIAVEWESNGQPENNYDTTPPVLDSDGSFFLYSDLTVDKSRWQQGNVFSCSVMHEALHNHYTQKSLSLSPG
light 1: DIQMTQSPSSLSASVGDRVTITCKASQDVSIGVAWYQQKPGKAPKLLIYSASYRYTGVPSRFSGSGSGTDFTLTISSLQPEDFATYYCQQYYIYPYTFGQGTKVEIKGQPKAAPSVTLFPPSSEELQANKATLVCLISDFYPGAVTVAWKADSSPVKAGVETTTPSKQSNNKYAASSYLSLTPEQWKSHRSYSCQVTHEGSTVEKTVAPTEC
heavy 2: QVQLVQSGAEVKKPGASVKVSCKASGYTFTSHWMHWVRQAPGQGLEWIGEFNPSNGRTNYNEKFKSKATMTVDTSTNTAYMELSSLRSEDTAVYYCASRDYDYDGRYFDYWGQGTLVTVSSASTKGPSVFPLAPSSKSTSGGTAALGCLVKDYFPEPVTVSWNSGALTSGVHTFPAVLQSSGLYSLSSVVTVPSSSLGTQTYICNVNHKPSNTKVDKKVEPKSCDKTHTCPPCPAPELLGGPSVFLFPPKPKDTLMISRTPEVTCVVVDVSHEDPEVKFNWYVDGVEVHNAKTKPREEQYQSTYRVVSVLTVLHQDWLNGKEYKCKVSNKALPAPIEKTISKAKGQPREPQVYTLPPSRKELTKNQVSLTCLVKGFYPSDIAVEWESNGQPENNYKTTPPVLKSDGSFFLYSKLTVDKSRWQQGNVFSCSVMHEALHNHYTQKSLSLSPG
light 2: DIQMTQSPSSLSASVGDRVTITCSASSSVTYMYWYQQKPGKAPKLLIYDTSNLASGVPSRFSGSGSGTDYTFTISSLQPEDIATYYCQQWSSHIFTFGQGTKVEIKGQPKAAPSVTLFPPSSEELQANKATLVCLISDFYPGAVTVAWKADSSPVKAGVETTTPSKQSNNKYAASSYLSLTPEQWKSHRSYSCQVTHEGSTVEKTVAPTEC
notes: The preparation held 65% correctly paired heterotetramer by LC/MS
B7: HEControl λκ (anti-HER-2/anti-EGFR IgG BsAb without Fab redesigns) (bispecific antibody)
heavy 1: B6 heavy 1
light 1: B6 light 1
heavy 2: B6 heavy 2
light 2: DIQMTQSPSSLSASVGDRVTITCSASSSVTYMYWYQQKPGKAPKLLIYDTSNLASGVPSRFSGSGSGTDYTFTISSLQPEDIATYYCQQWSSHIFTFGQGTKVEIKRTVAAPSVFIFPPSDEQLKSGTASVVCLLNNFYPREAKVQWKVDNALQSGNSQESVTEQDSKDSTYSLSSTLTLSKADYEKHKVYACEVTHQGLSSPVTKSFNRGEC

The binders below were run against T1, hHGFR(cMet)-Fc (human, UniProt P08581 25-932) (assay: sandwich ELISA: hHGFR(cMet)-Fc coated, BsAb, hAxl-Fc-biotin detection).
T1 construct: Coated in the sandwich ELISA; second injection in SPR; not shown: Fc part of the bought fusion protein
T1 sequence (P08581 25-932): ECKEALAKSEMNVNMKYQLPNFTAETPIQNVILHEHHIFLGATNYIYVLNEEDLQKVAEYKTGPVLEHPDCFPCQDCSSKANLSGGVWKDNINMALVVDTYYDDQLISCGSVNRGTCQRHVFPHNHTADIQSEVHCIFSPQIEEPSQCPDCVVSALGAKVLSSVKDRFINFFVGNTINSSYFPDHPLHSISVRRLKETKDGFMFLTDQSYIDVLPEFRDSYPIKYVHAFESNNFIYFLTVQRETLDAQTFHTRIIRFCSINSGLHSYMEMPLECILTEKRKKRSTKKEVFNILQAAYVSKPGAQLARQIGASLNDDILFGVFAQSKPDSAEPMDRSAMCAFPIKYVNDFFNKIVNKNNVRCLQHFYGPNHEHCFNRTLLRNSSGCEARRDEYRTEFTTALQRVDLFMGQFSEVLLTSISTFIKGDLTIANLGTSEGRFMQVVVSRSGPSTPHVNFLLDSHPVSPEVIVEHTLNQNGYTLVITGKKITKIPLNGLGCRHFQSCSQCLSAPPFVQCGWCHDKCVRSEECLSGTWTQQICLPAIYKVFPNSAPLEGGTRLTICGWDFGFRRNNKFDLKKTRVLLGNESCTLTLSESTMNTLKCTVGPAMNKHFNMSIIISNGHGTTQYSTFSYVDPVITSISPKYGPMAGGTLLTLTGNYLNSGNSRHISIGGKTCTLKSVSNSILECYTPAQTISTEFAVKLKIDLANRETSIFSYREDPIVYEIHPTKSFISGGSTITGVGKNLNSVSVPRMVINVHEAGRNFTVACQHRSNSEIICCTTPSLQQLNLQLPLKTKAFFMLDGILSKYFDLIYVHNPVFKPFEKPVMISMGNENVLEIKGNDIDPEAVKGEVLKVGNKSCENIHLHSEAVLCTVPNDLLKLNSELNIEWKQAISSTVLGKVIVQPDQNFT
Method: (§1) Two sandwich ELISAs are developed, one for detecting anti-HER-2/anti-EGFR BsAb activity and one for detecting anti-cMET/anti-Axl BsAb activity. For both ELISAs, clear 96-well round bottom high binding Immulon microtiter plates (Greiner bio-one, cat#650061) are coated overnight at 2-8° C. with 50 μL/well 1 μg/mL hHER-2-Fc or 1 μg/mL hHGFR(cMet)-Fc (both from R&D systems) in a 50 mM Na₂CO₃ pH 8 buffer. The plates are washed 4 times with PB ST and blocked with 100 μL/well casein buffer (Pierce) for 1 hr at 37° C. The plates are then washed 4 times with PBST and the parental IgG controls or BsAb IgG test articles are added at 50 μL/well and 5 μg/mL and serially diluted 1:3 down the plate. The test articles are incubated on the plate for 1 hr at 37° C. The plates are then washed 4 times with PBST and 50 μL/well 0.2 μg/mL hEGFR-Fc-biotin or hAxl-Fc-biotin (both from R&D systems) is added for 1 hr at 37° C. The plates are then washed 4 times with PBST followed by the addition of a 50 μL/well streptavidin-HRP (Jackson Labs) diluted 1:2000 in PBST. The streptavidin-HRP is incubated in each well for 1 hr at 37° C. The plates are then washed 4 times with PBST and 100 μL/well 1-component TMB substrate is added (KPL laboratories). After approximately 10 minutes, […] 1% H₃PO₄ (in H₂O) is added to each plate to quench the reaction. Absorbance (450 nm) of every well in the plates is read using a SpectraMax UV plate reader (Molecular Devices). Biotin-labeling of the hEGFR-Fc and hAxl-Fc proteins is performed using EZ-Link Sulfo-NHS-LC-Biotin (Thermo Scientific) according to the manufacturer's protocol.

Binding result, binds:
B1, B2, B3, B4, B5

These binders were tested against T2, hEGFR-Fc (human, UniProt P00533 25-645) (assay: sandwich ELISA: hHER-2-Fc coated, BsAb, hEGFR-Fc-biotin detection).
T2 construct: Biotin-labelled (EZ-Link Sulfo-NHS-LC-Biotin) as detection reagent in the ELISA; unlabelled second injection in SPR; also called hEGFR-Fc-biotin; not shown: Fc part of the bought fusion protein
Method: as §1

Binding result, binds:
B6, B7
